This passage reports Kd results from publication PMC7409549, “A time-resolved interaction analysis of Bem1 reconstructs the flow of Cdc42 during polar growth” (Life Science Alliance, 2020).

What is called Kd is the free concentration of one partner at which half of the binding sites on the other are occupied at equilibrium, for simple one-to-one binding. Read a high Kd as weaker binding.

The target of this experiment is T1, 6xHIS-Nba1_(202-289)-SNAP (S. cerevisiae, UniProt Q08229 202-289).
T1 construct: Nba1, S. cerevisiae, residues 202-289; also called the PxxP site; source: E. coli BL21DE3, purified (HisTrap HP, size-exclusion chromatography); not shown: 6xHIS, N-terminal, kept; SNAP-tag, C-terminal, kept
T1 sequence (looked up): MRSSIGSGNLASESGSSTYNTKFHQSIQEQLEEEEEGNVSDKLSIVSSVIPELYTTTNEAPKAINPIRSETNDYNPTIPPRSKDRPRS
As to the kind of experiment: SPR; Biacore X100; GST-SH3 domains captured on an anti-GST antibody CM5 chip, free GST on the reference cell; 6xHis-Nba1_(202-289)-SNAP as analyte; HBSEP buffer (10 mM Hepes, 150 mM NaCl, 3 mM EDTA, 0.05% Tween 20, pH 7.4); equilibrium KD. Conditions: both partners purified. A general note: SPR reads the build-up and loss of mass on a sensor chip optically.

B1: GST-SH3_(Boi2) (domain or fragment, S. cerevisiae, UniProt P39969 43-107, looked up)
chain: GNFPMYIAINEYFKRMEDELDMKPGDKIKVITDDEEYKDGWYFGRNLRTNEEGLYPVVFTQKITV
notes: SH3 domain of Boi2, S. cerevisiae; source: E. coli BL21DE3, purified (GSTrap, Superdex 200); not shown: GST, N-terminal, kept
B1 displayed a Kd of 1970 nM.

B2: GST-SH3_(Boi1) (domain or fragment, S. cerevisiae, UniProt P38041 13-77, looked up)
chain: KSFPLYIAVNQYSKRMEDELNMKPGDKIKVITDDGEYNDGWYYGRNLRTKEEGLYPAVFTKRIAI
notes: SH3 domain of Boi1, S. cerevisiae; also called GST fusion to SH3_(Boi1); source: E. coli BL21DE3, purified (GSTrap, Superdex 200) for SPR; coupled to glutathione beads from extract for the pull-down; not shown: GST, N-terminal, kept
For B2, the Kd is around 740 nM.
